Experiment [1] concerns humanized Pear1 mice. As to the kind of experiment: Peritoneal adhesion model, BhatiaDS score. In kind it is in vivo. The arrangement: key to BhatiaDS score: grade 0: no adhesion; grade I: adhesive area of the area treated in the caecums of vermiform/total area of the treated area<50%, easy for blunt separation; grade II: above-mentioned area ratio≥50%, easy for blunt dissection; Grade III: Regardless of the size of the adhesive area, as long as the adhesion is difficult to separate, blunt separation can still be performed, but the intestinal wall is obviously damaged after separation; Grade IV: Regardless of the size of the adhesive area, as long as the adhesion is firm and can no longer be bluntly separated, required sharp separation. An excerpt:
The model was made in humanized mice within 3 cm from the caecums of vermiform in peritoneal cavity, following the methods in the literature (Zhiliang Zhang, et al., Characteristics of genesis and development of peritoneal adhesion by different causes: experiment with rats, Chinese Journal of Medicine, 2005). The mice were divided into 3 groups. groups, with 20 mice in each group: A, control group with normal saline; B, prophylactic intraperitoneal injection of anti-human Pear1 monoclonal antibody (including LF2 or hLF105 antibody) 0.5 mg/kg, once a week; C, prophylactic intraperitoneal injection of anti-human Pear1 monoclonal antibody 1 mg/kg, once a week. After the mice were euthanized at 2 time points of 2 weeks and 4 weeks, an inverted “U”-shaped incision was selected to enter the abdomen, avoiding the original surgical incision. […] And the degree of adhesion in the peritoneal adhesion model was evaluated. […]
According to the scoring standard of BhatiaDS, grade 0: no adhesion; grade I: adhesive area of the area treated in the caecums of vermiform/total area of the treated area<50%, easy for blunt separation; grade II: above-mentioned area ratio≥50%, easy for blunt dissection; Grade III: Regardless of the size of the adhesive area, as long as the adhesion is difficult to separate, blunt separation can still be performed, but the intestinal wall is obviously damaged after separation; Grade IV: Regardless of the size of the adhesive area, as long as the adhesion is firm and can no longer be bluntly separated, required sharp separation. Each mouse was scored by 3 people respectively, and the average value was taken as the score of adhesion in this sample.

In experiment [2] the test system is humanized Pear1 mice. As to the kind of experiment: Peritoneal adhesion model, indicators related to adhesion (immunohistochemistry or RT-PCR). In kind it is in vivo. As to conditions: versus control group. An excerpt:
(§1) The model was made in humanized mice within 3 cm from the caecums of vermiform in peritoneal cavity, following the methods in the literature (Zhiliang Zhang, et al., Characteristics of genesis and development of peritoneal adhesion by different causes: experiment with rats, Chinese Journal of Medicine, 2005). The mice were divided into 3 groups. groups, with 20 mice in each group: A, control group with normal saline; B, prophylactic intraperitoneal injection of anti-human Pear1 monoclonal antibody (including LF2 or hLF105 antibody) 0.5 mg/kg, once a week; C, prophylactic intraperitoneal injection of anti-human Pear1 monoclonal antibody 1 mg/kg, once a week. After the mice were euthanized at 2 time points of 2 weeks and 4 weeks, an inverted “U”-shaped incision was selected to enter the abdomen, avoiding the original surgical incision. […] And the degree of adhesion in the peritoneal adhesion model was evaluated.
(§2) For fibroblast-specific Pear1 knockout mice, a peritoneal adhesion model was used to form a sham operation on the mice. The model preparation and animal grouping were as described above.
Immunohistochemistry or RT-PCR was used to measure some indicators related to adhesion formation to reflect the severity of adhesion, such as: fibrinogen (FIB), α-smooth actin (α-SMA), MMPs/TIMPs, transforming growth factor (TGF-β1), vascular endothelial growth factor (VEGF).

Experiment [3] concerns subcutaneous mucosal fibroblasts. As to the kind of experiment: TGFβ activated mucosal fibroblasts treated with antibody: hydroxyproline in supernatant and QPCR of Col7a1, ACTA2. As to conditions: 1 μg/mL antibody, 10 ng/mL TGFβ, 48 hours; versus control group. The format is cell-based, humanized Pear1 mice. How it is done: After the treatment of starvation in cultured mucosal or subcutaneous derived fibroblasts for 12 hours, 1 μg/mL anti-human Pear1 monoclonal antibody (including LF2 antibody or hLF105 antibody) was added separately to treat the cells. After 30 minutes, 10 ng/mL TGFβ was added to treat the cells for 48 hours, then the cell supernatant was collected. The content of hydroxyproline was detected using the hydroxyproline detection kit of Nanjing Jiancheng Biology Co., Ltd. according to the instructions.
Mucosal fibroblasts in Method 5 were collected. Total mRNA was extracted by Trizol method (Invitrogen, Carlsbad, CA) according to standard protocols. Complementary DNA was synthesized using reverse transcriptase (Takara). ABI7000 Real-time PCR instrument (Life Technologies) was used to detect gene expression and the PCR primer sequences are shown in Table 5. The 18sRNA gene was used as an internal reference.
To further investigate the role of targeting Pear1 in inhibiting mucosal fibroblast activation, subcutaneous mucosal fibroblasts were isolated from humanized Pear1 mice and cultured in vitro. TGFβ activated fibroblasts were treated with anti-human Pear1 monoclonal antibodies (including LF2 or hLF105) for 48 hours, and the supernatants were collected to detect the content of hydroxyproline. The cells were collected for QPCR to detect the expression levels of extracellular matrix proteins such as collagen 7a1 (Col 7a1) and smooth muscle actin a2 (ACTA2) to characterize fibroblast activation and collagen synthesis.

In experiment [4] the test system is humanized Pear1 mice. As to the kind of experiment: Peritoneal adhesion model, determination of hydroxyproline in tissues. As to conditions: versus control group. The format is in vivo.
Text: as §1, §2
The formation of tissue adhesion depends on the synthesis of collagen and hydroxyproline is the precursor of collagen synthesis. […]

Experiment [5] relates to humanized Pear1 mice. As to the kind of experiment: Subcutaneous mucosal adhesion model, HE and Masson staining at wounded site. The format is in vivo. As to conditions: 5 micrograms at the wounded site every 7 days; 14th day; versus control group. An excerpt:
Mice were anesthetized by intraperitoneal injection of pentobarbital sodium. The hair is depilated and sterilized, and the skin is excised. A thin layer of bonding agent was applied to one side of the silicone plate to fix the wound concentrically with a clamping board. Each clamping board was sutured at regular intervals with eight stitches to secure it to the intact tissue around the wound, preventing contraction of the wound edges. Sterile dressings were cut into circular shapes and attached to the silicone board for protecting the wound, preventing the animals from scratching or chewing. The anti-human Pear1 monoclonal antibody was […].
Mice were anesthetized using isoflurane, maintaining a flow of 2% isoflurane. The sterile dressings on the silicone board were peeled off (or not peeled off). Pictures were taken at the wounded sites next to the fixed position and scale bar. If necessary, sterile dressings can be reapplied. Image J was used to process the photos. The wounded area can be calculated according to the circled area by the scale.
[…] were fixed in 4% paraformaldehyde for 48 hours, after paraffin embedding, a semi-automatic rotary slicing machine (Leica; rm2235 and cm1950) was used for slicing, dewaxing is carried out at room temperature, gradient ethanol is used for rehydration, HE and Masson staining were then performed.
Subsequently, in order to detect the role of targeting Pear1 in inhibiting adhesion formation in vivo, the inventors constructed an adhesion model in humanized Pear1 mice, and at the same time instilled anti-human Pear1 monoclonal antibodies (including LF2 or hLF105) each at a dose of 5 micrograms at the wounded site, with once administration every 7 days. On the 14th day, the subcutaneous mucosal tissue at the wounded site was removed, stained with HE and Masson, and photographed under a microscope. The thickness of the subcutaneous mucosa and skin and the area of collagen were counted by Image J software for indicating the formation of adhesions.

Where [6] appears, read: 0.5 mg/kg intraperitoneal once a week, 2 weeks (n = 8).
The mark [7] stands for this setting: 0.5 mg/kg intraperitoneal once a week, 4 weeks (n = 8).
[8] abbreviates: 1.0 mg/kg intraperitoneal once a week, 2 weeks (n = 8).
Setting [9] is: 1.0 mg/kg intraperitoneal once a week, 4 weeks (n = 8).

The values below come from patent US20240327510A1, “DRUG FOR PREVENTING, ALLEVIATING OR TREATING MUCOSAL ADHESION AND USE THEREOF” (SHANGHAI SYNVIDA BIOTECHNOLOGY CO. LTD., priority 2021, published 2024).

Changes are numbered by the printed parent chain. In names and notes the source's numbering stands.

B1: hLF-N55Q: humanized anti-human Pear1 antibody; VH SEQ ID NO: 13, VL SEQ ID NO: 22 (antibody, V domains shown)
VH: QVQLVQSGAEVKKPGASVKVSCKASGYTFTGYPMNWVRQAPGKRLEWMGVINPYQGGTSYNQKFKGRATLTVDTSASTAYMELSSLRSEDTAVYYCARGGVRPFAYWGQGTLVTVSS
VL: DIQMTQSPSSLSASVGDRVTITCKASEDIYNRLAWYQQKPGKAPKLLISGATSLETGVPSRFSGSGSGNDFTLTISSLQPEDFATYYCQQYWSTPTFGQGTKLEIK
As to B1, the BhatiaDS score entry is recorded as “II (grade II: above-mentioned area ratio≥50%, easy for blunt dissection)” with humanized Pear1 mice [1] (setting [6]); “I (grade I: adhesive area of the area treated in the caecums of vermiform/total area of the treated area<50%, easy for blunt separation)” with humanized Pear1 mice [1] (setting [7]); “III” with humanized Pear1 mice [1] (setting [8]); “I (grade I: adhesive area of the area treated in the caecums of vermiform/total area of the treated area<50%, easy for blunt separation)” in the experiment on humanized Pear1 mice [1] (setting [9]).

B2: hLF107: humanized anti-human Pear1 antibody; VH SEQ ID NO: 8, VL SEQ ID NO: 24 (antibody, V domains shown)
VH: B1 VH with Q55N
VL: B1 VL with F71Y
For the molecule B2, the BhatiaDS score entry in the experiment on humanized Pear1 mice [1] (setting [6]) was “II (grade II: above-mentioned area ratio≥50%, easy for blunt dissection)”; in the experiment on humanized Pear1 mice [1] (setting [7]) it was “I (grade I: adhesive area of the area treated in the caecums of vermiform/total area of the treated area<50%, easy for blunt separation)”; with humanized Pear1 mice [1] (setting [8]) it was “IV”; in the experiment on humanized Pear1 mice [1] (setting [9]), “II (grade II: above-mentioned area ratio≥50%, easy for blunt dissection)”.

B3: hLF110: humanized anti-human Pear1 antibody; VH SEQ ID NO: 9, VL SEQ ID NO: 23 (antibody, V domains shown)
VH: B1 VH with K43Q, R44N, Q55N, A68V, T74K
VL: B1 VL with K42N
As to B3, the BhatiaDS score result in the experiment on humanized Pear1 mice [1] (setting [6]) is on record as “I (grade I: adhesive area of the area treated in the caecums of vermiform/total area of the treated area<50%, easy for blunt separation)”; with humanized Pear1 mice [1] (setting [7]) it was 0; in the experiment on humanized Pear1 mice [1] (setting [8]) it was “III”; in the experiment on humanized Pear1 mice [1] (setting [9]) it was “I (grade I: adhesive area of the area treated in the caecums of vermiform/total area of the treated area<50%, easy for blunt separation)”.

B4: LF2: anti-human Pear1 monoclonal antibody; VH SEQ ID NO: 1, VL SEQ ID NO: 16 (antibody, V domains shown)
VH: EVQLQQSGPELVKPGASMKISCKASGYSFTGYPMNWVRQSHVKNLEWIGVINPYNGGTSYNQKFKGKATLTVDKSSSTAYIELLSLTSDDSAVYYCARGGVRPFAYWGQGTLVTVSA
VL: DIQMTQTSSSFSVSLGDRVTITCKASEDIYNRLAWYQQKPGNAPRLLISGATSLETGVPSRFSGSGSGNDYTLSITSLQTEDVATYYCQQYWSTPTFGAGTKLELQ
Take B4: in the experiment on humanized Pear1 mice [2], the “indicators related to adhesion (FIB, α-SMA, MMPs/TIMPs, TGF-β1, VEGF)” value is listed as “significantly lower”. Moreover, in experiment [3], the “ability to synthesize extracellular matrix” value is given as “inhibited” and the activation of fibroblasts entry is reported as “inhibited”. The “hydroxyproline content in tissues” value in the experiment on humanized Pear1 mice [4] was “significantly lower”. The BhatiaDS score result in the experiment on humanized Pear1 mice [1] (setting [6]) is recorded as “I (grade I: adhesive area of the area treated in the caecums of vermiform/total area of the treated area<50%, easy for blunt separation)”. Moreover, the BhatiaDS score entry with humanized Pear1 mice [1] (setting [8]) is “III”. In addition, the BhatiaDS score entry in the experiment with humanized Pear1 mice [1] (setting [9]) was “I (grade I: adhesive area of the area treated in the caecums of vermiform/total area of the treated area<50%, easy for blunt separation)”. Further, the “BhatiaDS score compared with the control group” value with humanized Pear1 mice [1] (versus control group, especially in the high-dose group (1.0 mg/kg)) is recorded as “significantly lower”. Also, in the experiment on humanized Pear1 mice [5], the “collagen deposition in the subcutaneous mucosa at wounded sites (Masson staining)” value is on record as “less collagen deposition”, the “dermal thickness at wounded sites (HE staining)” value is given as “smaller dermal thickness” and the “fibroblasts at wounded sites (HE staining)” value was “fewer fibroblasts”.
